The results in this text go back to patent US20150031601A1.

The assay addresses serum proteins. The assay is described as follows: 90% serum, 30 kDa ultrafiltration, HPLC.

B1: SEQ ID NO: 411 (peptide)
peptide: GFCWNVCAYRNGKRACYRRCN
The molecule B1 yielded a Protein binding (%) of 86%.

B2: SEQ ID NO: 24 (peptide)
peptide: GFCWYVCSYRNGVRVCYRRCN
B2: the Protein binding (%) amounted to 85%.

B3: SEQ ID NO: 42 (peptide)
peptide: GFCWYVCVYRNGVRQCYRRCN
For B3, the Protein binding (%) was determined as 96%.

B4: SEQ ID NO: 3 (peptide)
peptide: GACWYVCVYRNGVRVCYRRCN
In turn, B4 yielded a Protein binding (%) of 86%.

B5: SEQ ID NO: 450 (peptide)
peptide: GFCWYACAKRNGLRVCYRRCN
B5 registered a Protein binding (%) of 98%.

B6: SEQ ID NO: 340 (peptide)
peptide: GFCWYACVYRNGKRACYRRCN
Turning to B6, the Protein binding (%) was 98%.

B7: SEQ ID NO: 72 (peptide)
peptide: GFCWRACVYRNGVRVCYRRCN
As to B7, the Protein binding (%) is 97%.

B8: SEQ ID NO: 386 (peptide)
peptide: GFCGRVCVYRNGKRACYRRCN
B8 had a Protein binding (%) of 81%.

B9: SEQ ID NO: 47 (peptide)
peptide: GFCWYVCVYRNGVRVCKRRCN
For the molecule B9, the Protein binding (%) was found to be 89%.

B10: SEQ ID NO: 60 (peptide)
peptide: GFCGHVCVYRNGVRVCYRRCN
In turn, B10 came in with a Protein binding (%) of 64%.

B11: SEQ ID NO: 28 (peptide)
peptide: GFCWYVCVRRNGVRVCYRRCN
In the case of B11, the Protein binding (%) stood at 92%.

B12: SEQ ID NO: 39 (peptide)
peptide: GFCWYVCVYRNGVRHCYRRCN
Consider B12, for which the Protein binding (%) is 98%.

B13: SEQ ID NO: 48 (peptide)
peptide: GFCWYVCVYRNGVRVCNRRCN
With B13, the Protein binding (%) came to 68%.

B14: NZ17074 (the antimicrobial peptide of SEQ ID NO: 70) (peptide)
peptide: GFCWNVCVYRNGVRVCHRRCN
Molecule B14 showed a Protein binding (%) of 79%.

B15: SEQ ID NO: 407 (peptide)
peptide: GFCWNACARRNGVRVCYRRCN
The molecule B15 showed a Protein binding (%) of 88%.

B16: SEQ ID NO: 377 (peptide)
peptide: GFCFRSCVRRNGVRVCYRRCN
Consider B16, for which the Protein binding (%) was determined as 65%.

B17: SEQ ID NO: 23 (peptide)
peptide: GFCWYVCHYRNGVRVCYRRCN
In the case of B17, the Protein binding (%) came to 98%.

B18: antimicrobial peptide of SEQ ID NO: 2 (the parent antimicrobial peptide) (peptide)
peptide: GFCWYVCVYRNGVRVCYRRCN
In the case of B18, the Protein binding (%) was 99.5%.

B19: SEQ ID NO: 381 (peptide)
peptide: GFCFRVCVKRNGVRKCYRRCN
Take B19: the Protein binding (%) worked out at 98%.

B20: SEQ ID NO: 56 (peptide)
peptide: GFCFYVCVYRNGVRVCRRRCN
The molecule B20 had a Protein binding (%) of 94%.

B21: SEQ ID NO: 30 (peptide)
peptide: GFCWYVCVYRNGGRVCYRRCN
B21 had a Protein binding (%) of 99%.

B22: SEQ ID NO: 396 (peptide)
peptide: GFCWHVCSKRNGLRVCYRRCN
B22: the Protein binding (%) worked out at 92%.

B23: SEQ ID NO: 331 (peptide)
peptide: GFCWRVCSYRNGVRKCYRRCN
Molecule B23 registered a Protein binding (%) of 95%.

B24: SEQ ID NO: 319 (peptide)
peptide: GFCWRACVYRNGVRACYRRCN
Molecule B24 displayed a Protein binding (%) of 40%.

B25: SEQ ID NO: 439 (peptide)
peptide: GFCWRVCHYSNGKRVCYRRCN
In turn, B25 yielded a Protein binding (%) of 92%.

B26: SEQ ID NO: 417 (peptide)
peptide: GFCWRACAYRNGKRVCYRRCN
Molecule B26 yielded a Protein binding (%) of 95%.

B27: SEQ ID NO: 38 (peptide)
peptide: GFCWYVCVYRNGVRGCYRRCN
As to B27, the Protein binding (%) was 93%.

B28: SEQ ID NO: 4 (peptide)
peptide: GFCAYVCVYRNGVRVCYRRCN
Consider B28, for which the Protein binding (%) came to 89%.

B29: SEQ ID NO: 320 (peptide)
peptide: GFCWRACVYRNGVRSCYRRCN
Take B29: the Protein binding (%) came out at 88%.

B30: SEQ ID NO: 74 (peptide)
peptide: GFCWRVCHYRNGVRVCYRRCN
For the molecule B30, the Protein binding (%) was 99%.

B31: SEQ ID NO: 68 (peptide)
peptide: GFCWKVCVYRNGVRVCSRRCN
B31 returned a Protein binding (%) of 87%.

B32: SEQ ID NO: 61 (peptide)
peptide: GFCGRVCVYRNGVRVCYRRCN
Turning to B32, the Protein binding (%) turned out to be 72%.

B33: SEQ ID NO: 362 (peptide)
peptide: GFCAHVCVKRNGARVCYRRCN
As for B33, the Protein binding (%) worked out at 76%.

B34: SEQ ID NO: 36 (peptide)
peptide: GFCWYVCVYRNGSRVCYRRCN
For B34, the Protein binding (%) was found to be 60%.

B35: SEQ ID NO: 359 (peptide)
peptide: RFCWNVCVYRNGVRVCHRHCN
Turning to B35, the Protein binding (%) turned out to be 80%.

B36: SEQ ID NO: 53 (peptide)
peptide: GFCWYVCVYRNGVRVCYRRCS
As for B36, the Protein binding (%) turned out to be 99%.

B37: SEQ ID NO: 33 (peptide)
peptide: GFCWYVCVYRNGPRVCYRRCN
With B37, the Protein binding (%) turned out to be 99%.

B38: SEQ ID NO: 523 (peptide)
peptide: GFCWRVCAYKNGKRSCYRRCN
For B38, the Protein binding (%) was determined as 90%.

B39: SEQ ID NO: 46 (peptide)
peptide: GFCWYVCVYRNGVRVCHRRCN
B39: the Protein binding (%) was determined as 88%.

B40: SEQ ID NO: 394 (peptide)
peptide: GFCWHVCARRNGARVCYRRCN
The molecule B40 came in with a Protein binding (%) of 80%.

B41: SEQ ID NO: 327 (peptide)
peptide: GFCWRVCHYRNSVRVCYRRCN
Molecule B41 registered a Protein binding (%) of 98%.

B42: SEQ ID NO: 346 (peptide)
peptide: GFCWYTCVKRNGLRVCYRRCN
B42 gave a Protein binding (%) of 86%.

B43: SEQ ID NO: 25 (peptide)
peptide: GFCWYVCYYRNGVRVCYRRCN
Take B43: the Protein binding (%) turned out to be 98%.

B44: SEQ ID NO: 435 (peptide)
peptide: GFCWRVCASRNGLRVCYRRCN
In the case of B44, the Protein binding (%) amounted to 85%.

B45: SEQ ID NO: 335 (peptide)
peptide: GFCWRVCVRRNGVRVCHRRCN
The molecule B45 displayed a Protein binding (%) of 95%.

B46: SEQ ID NO: 29 (peptide)
peptide: GFCWYVCVYRNGARVCYRRCN
Molecule B46 displayed a Protein binding (%) of 99%.

B47: SEQ ID NO: 509 (peptide)
peptide: GFCWRVCVYSNGKRSCHRRCN
The molecule B47 displayed a Protein binding (%) of 87%.

B48: SEQ ID NO: 454 (peptide)
peptide: GFCWYVCVKRNGARKCHRRCN
Regarding B48, the Protein binding (%) came out at 90%.

B49: SEQ ID NO: 453 (peptide)
peptide: GFCWYVCARRNGLRSCYRRCN
For B49, the Protein binding (%) was 92%.

B50: SEQ ID NO: 390 (peptide)
peptide: GFCWHVCVYKNGKRSCYRRCN
On to B50, for which the Protein binding (%) is 87%.

B51: SEQ ID NO: 425 (peptide)
peptide: GFCWRVCAYSNGKRVCYRRCN
Molecule B51 displayed a Protein binding (%) of 69%.

B52: SEQ ID NO: 316 (peptide)
peptide: GFCWRVCVYRNGVRSCHRRCN
On to B52, for which the Protein binding (%) is 90%.

B53: SEQ ID NO: 54 (peptide)
peptide: GFCWYVCVYRNGVRVCYRRCT
B53 came in with a Protein binding (%) of 99%.

B54: SEQ ID NO: 493 (peptide)
peptide: GFCGRVCVYKNGKRACYRRCN
For the molecule B54, the Protein binding (%) was determined as 77%.

B55: SEQ ID NO: 21 (peptide)
peptide: GFCWYVCAYRNGVRVCYRRCN
B55: the Protein binding (%) was determined as 98.5%.

B56: SEQ ID NO: 504 (peptide)
peptide: GFCWKVCARRNGARSCYRRCN
B56 gave a Protein binding (%) of 95%.

B57: SEQ ID NO: 41 (peptide)
peptide: GFCWYVCVYRNGVRNCYRRCN
In the case of B57, the Protein binding (%) worked out at 97%.

B58: SEQ ID NO: 363 (peptide)
peptide: GFCARVCAKRNGVRVCYRRCN
As for B58, the Protein binding (%) was 80%.

B59: SEQ ID NO: 44 (peptide)
peptide: GFCWYVCVYRNGVRSCYRRCN
B59 showed a Protein binding (%) of 85%.

B60: SEQ ID NO: 418 (peptide)
peptide: GFCWRACAYRNGVRACYRRCN
Take B60: the Protein binding (%) came out at 92%.

B61: SEQ ID NO: 45 (peptide)
peptide: GFCWYVCVYRNGVRTCYRRCN
For B61, the Protein binding (%) came to 98%.

B62: SEQ ID NO: 343 (peptide)
peptide: GFCWYACAYRNGVRACYRRCN
B62 came in with a Protein binding (%) of 74%.
